# In the DeepSol protein solubility set:
# Experiment: soluble on expression in E. coli; label from the status in PepcDB or PDB records
row,Sequence,soluble on expression in E. coli
1,GPWKGGRGRAASLLPLNRALGTTRPHKEGEVPGVDYIFITVEDFMELEKSGALLESGTYEDNYYGTPKPPAEPAPLLLNVTDQILPGATPSAEGKRKRNKSVSNMEKASIEPPEEEEEERPVVNGNGVVVTPESSEHEDKSAGASGEMPSQPYPAPVYSQPEELKEQMDDTKPTKPEDNEEPDPLPDNWEMAYTEKGEVYFIDHNTKTTSWLDPRLAKKAKPPEECKENELPYGWEKIDDPIYGTYYVDHINRRTQFENPVLEAKRKLQQHNMPHTELGTKPLQAPGFREKPLFTRDASQLKGTFLSTTLKKSNMGFGFTIIGGDEPDEFLQVKSVIPDGPAAQDGKMETGDVIVYINEVCVLGHTHADVVKLFQSVPIGQSVNLVLCRGYPLPFDPEDPANSMVPPLAIMERPPPVMVNGRHNYETYLEYISRTSQSVPDITDRPPHSLHSMPTDGQLDGTYPPPVHDDNVSMASSGATQAELMTLTIVKGAQGFGFTIADSPTGQRVKQILDIQGCPGLCEGDLIVEINQQNVQNLSHTEVVDILKDCPIGSETSLIIHRGGFFSPWKTPKPIMDRWENQGSPQTSLSAPAIPQNLPFPPALHRSSFPDSTEAFDPRKPDPYELYEKSRAIYESRRPDYKELDVHLRRMESGFGFRILGGDEPGQPILIGAVIAMGSADRDGRLHPGDELVYVDGIPVAGKTHRYVIDLMHHAARNGQVNLTVRRKVLCGGEPCPENGRSPGSVSTHHSSPRSDYATYTNSNHAAPSSNASPPEGFASHSLQTSDVVIHRKENEGFGFVIISSLNRPESGSTITVPHKIGRIIDGSPADRCAKLKVGDRILAVNGQSIINMPHADIVKLIKDAGLSVTLRIIPQEELNSPTSAPSSEKQSPMAQQSPLAQQSPLAQPSPATPNSPIAQPAPPQPLQLQGHENSYRSEVKARQDVKPDIRQPPFTDYRQPPLDYRQPPGGDYQQPPPLDYRQPPLLDYRQHSPDTRQYPLSDYRQPQDFDYFTVDMEKGAKGFGFSIRGGREYKMDLYVLRLAEDGPAIRNGRMRVGDQIIEINGESTRDMTHARAIELIKSGGRRVRLLLKRGTGQVPEYDEPAPWSSPAAAAPGLPEVGVSLDDGLAPFSPSHPAPPSDPSHQISPGPTWDIKREHDVRKPKELSACGQKKQRLGEQRERSASPQRAARPRLEEAPGGQGRPEAGRPASEARAPGLAAADAADAARAGGKEAPRAAAGSELCRREGPGAAPAFAGPGGGGSGALEAEGRAGARAGPRPGPRPPGGAPARKAAVAPGPWKVPGSDKLPSVLKPGASAASR,soluble
2,GQEVTMWGDSHGVAPNQVRRTLVKVALSESLPPGAKQIRIGFSLPKETEEKVTALYLLVSDSLAVRDLPDYKGRVSYDSFPISKEDRTTALSADSVAGRRFFYLAADIGPVASFSRSDTLTARVEEVAVDGRPLPLKELSPASRRLYRGY,not soluble
3,GQTTIQVRVPYRVVGLVVGPKGATIKRIQQRTHTYIVTPGRDKEPVFAVTGMPENVDRAREEIEAHITLR,soluble
4,GSAGKFIVIFKNDVSEDKIRETKDEVIAEGGTITNEYNMPGMKGFAGELTPQSLTKFQGLQGDLIDSIEEDGIVTTQ,soluble
5,GSALRELKVCLLGDTGVGKSSIMWRFVEDSFDPNINPTIGASFMTKTVQYQNELHKFLIWDTAGLERFRALAPMYYRGSAAAIIVYDITKEETFSTLKNWVRELRQHGPPSIVVAIAGNKCDLTDVREVMERDAKDYADSIHAIFVETSAKNAININELFIEISRRIPST,soluble
6,GSAPAKEPSVNTALVPQLSTISRALTPSPVMVLENIEPEIVYAGYDSSKPDTAENLLSTLNRLAGKQMIQVVKWAKVLPGFKNLPLEDQITLIQYSWMSLSSFALSWRSYKHTNSQFLYFAPDLVFNEEKMHQSAMYELCQGMHQISLQFVRLQLTFEEYTIMKVLLLLSTIPKDGLKSQAAFEEMRTNYIKELRKMVTKCPNNSGQSWQRFYQLTKLLDSMHDLVSDLLEFCFYTFRESHALKVEFPAMLVEIISDQLPKVESGNAKPLYFHRK,soluble
7,GSASKICQFKLVLLGESAVGKSSLVLRFVKGQFHEYQESTIGAAFLTQSVCLDDTTVKFEIWDTAGQERYHSLAPMYYRGAQAAIVVYDITNQETFARAKTWVKELQRQASPSIVIALAGNKADLANKRMVEYEEAQAYADDNSLLFMETSAKTAMNVNDLFLAIAKKLPKSEPQNLGG,soluble
8,GSCKLPVKKATVVYQGERVKIQEKFKNGMLHGDKVSFFCKNKEKKCSYTEDAQCIDGTIEVPKCFKEHSSLAFWKTDASDVKPCA,soluble
9,GSDALVGRLVKSSWDMKSLDLHSMLVETMSKSDHVLIVGFGRGGQTVGRVLAQEDIPYFALDLDIARVQVARSAGEPVSFGDAKRREVLEAAGLGRAKMVVVTLNNMHETQHVLDNVLSMYPNMPVYVRATNDDYVKTFTDIGAEEAVSDTKETGLVLAGYAMLGNGASYRHVYQTMANIRHSRYAALEGLFVGSDDEAGFGENGETVRHAFPLAAEAYAVGKTVGTLPMAAYGIKLLFVRRRTGRIENPDASFTLEGGDVLVVAGKKEEIISFENWSLQGI,not soluble
10,GSDKIHHHHHHMLTMKDIIRDGHPTLRQKAAELELPLTKEEKETLIAMREFLVNSQDEEIAKRYGLRSGVGLAAPQINISKRMIAVLIPDDGSGKSYDYMLVNPKIVSHSVQEAYLPTGEGCLSVDDNVAGLVHRHNRITIKAKDIEGNDIQLRLKGYPAIVFQHEIDHLNGVMFYDHIDKNHPLQPHTDAVEV,soluble
11,GSDNESDEEVAGKKSFSAQEREYIRQGKEATAVVDQILAQEENWKFEKNNEYGDTVYTIEVPFHGKTFILKTFLPCPAELVYQEVILQPERMVLWNKTVTACQILQRVEDNTLISYDVSAGAAGGVVSPRDFVNVRRIERRRDRYLSSGIATSHSAKPPTHKYVRGENGPGGMIVLKSASNPRVCTFVWILNTDLKGRLPRYLIHQSLAATMFEFAFHLRQRISELGAR,soluble
12,GSGKSLLLKVILLGDGGVGKSSLMNRYVTNKFDSQAFHTIGVEFLNRDLEVDGRFVTLQIWDTAGQERFKSLRTPFYRGADCCLLTFSVDDRQSFENLGNWQKEFIYYADVKDPEHFPFVVLGNKVDKEDRQVTTEEAQTWCMENGDYPYLETSAKDDTNVTVAFEEAVRQVLAVEEQLE,soluble
13,GSHHPFTAQIVAVTASGYDSEKGHVPANIADGDVKTRWAASGESWVQLELDKEQSIENILIVPFKPTERKLKFSIFYSNDGKNWQPLAEGLETSSADKNGEKLTFTPVTAKYIKLDTFGTDVNNWSAINEIAINSAAALPSRAIK,soluble
14,GSHMARGKLKAPKWPILKNLELLQAQNYSRNIKTFPYKELNKSMYYDKWVCMCRCEDGALHFTQLKDSKTITTITTPNPRTGGEHPAIISRGPCNRLLLLYPGNQITILDSKTNKVLREIEVDSANEIIYMYGHNEVNTEYFIWADNRGTIGFQSYEDDSQYIVHSAKSDVEYSSGVLHKDSLLLALYSPDGILDVYNLSSPDQASSRFPVDEEAKIKEVKFADNGYWMVVECDQTVVCFDLRKDVGTLAYPTYTIPEFKTGTVTYDIDDSGKNMIAYSNESNSLTIYKFDKKTKNWTKDEESALCLQSDTADFTDMDVVCGDGGIAAILKTNDSFNIVALTP,soluble
15,GSHMASMTGGQQMGRGSNNGDICIKDSINTLWTGINPPPNCQIVENTNTNDGKLTLVLVKNGGLVNGYVSLVGVSDTVNQMFTQKTANIQLRLYFDSSGNLLTEESDLKIPLKNKSSTATSETVASSKAFMPSTTAYPFNTTTRDSENYIHGICYYMTSYDRSLFPLNISIMLNSRMISSNVAYAIQFEWNLNASESPESNIATLTTSPFFFSYITEDDN,soluble
16,GSHMASSEDEKLSFEAVRNIHKLMDDDANGDVDVEESDEFLREDLNYHDPTVKHSTFHGEDKLISVEDLWKAWKSSEVYNWTVDEVVQWLITYVELPQYEETFRKLQLSGHAMPRLAVTNTTMTGTVLKMTDRSHRQKLQLKALDTVLFG,soluble
17,GSHMDINNKARIHWACRRGMRELDISIMPFFEHEYDSLSDDEKRIFIRLLECDDPDLFNWLMNHGKPADAELEMMVRLIQTRNRERGPVAI,soluble
18,GSHMIEPNVISVRLFKRKVGGLGFLVKERVSKPPVIISDLIRGGAAEQSGLIQAGDIILAVNDRPLVDLSYDSALEVLRGIASETHVVLILRGPEGFTTHLETTFTGDGTPKTIRVTQPLGPPTKAV,soluble
